One may read the koff as the rate constant with which the complex falls apart. What is called kon is the rate constant with which the complex forms.

The source of these data is article PMC4374921, “Inhibition of Type VI Secretion by an Anti-TssM Llama Nanobody” (PLoS ONE, 2015).

The chains are these.
T1: periplasmic domain of the EAEC TssM protein (enteroaggregative Escherichia coli …)
T1 construct: TssM of enteroaggregative Escherichia coli (EAEC), a 1129-amino-acid inner membrane protein; periplasmic domain, amino-acids 386-1129; also called TssM periplasmic domain; source: recombinant, produced and purified as described previously [11]
T1 chain: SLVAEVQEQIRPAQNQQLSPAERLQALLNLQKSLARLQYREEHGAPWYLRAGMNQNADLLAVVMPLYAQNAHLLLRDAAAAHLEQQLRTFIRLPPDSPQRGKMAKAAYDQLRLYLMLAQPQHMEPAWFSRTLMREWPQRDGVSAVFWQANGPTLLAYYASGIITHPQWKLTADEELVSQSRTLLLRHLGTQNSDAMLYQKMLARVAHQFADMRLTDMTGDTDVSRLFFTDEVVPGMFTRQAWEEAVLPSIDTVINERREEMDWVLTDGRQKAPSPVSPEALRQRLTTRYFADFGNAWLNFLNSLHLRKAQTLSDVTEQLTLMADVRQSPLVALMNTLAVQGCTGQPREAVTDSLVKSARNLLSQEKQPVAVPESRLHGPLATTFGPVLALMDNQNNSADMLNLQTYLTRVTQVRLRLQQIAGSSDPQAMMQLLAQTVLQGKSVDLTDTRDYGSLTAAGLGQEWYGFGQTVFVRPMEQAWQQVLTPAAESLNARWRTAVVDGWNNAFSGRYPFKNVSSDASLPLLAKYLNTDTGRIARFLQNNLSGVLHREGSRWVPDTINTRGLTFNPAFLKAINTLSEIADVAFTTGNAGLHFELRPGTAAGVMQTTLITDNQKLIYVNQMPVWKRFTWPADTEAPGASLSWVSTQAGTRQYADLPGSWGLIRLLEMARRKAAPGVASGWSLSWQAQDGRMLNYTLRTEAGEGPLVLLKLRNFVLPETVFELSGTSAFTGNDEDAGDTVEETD

B1: anti-TssM nanobody nb02 (VHH)
VHH: DVQLVESGGGLVHPGGSLRLSCAASGRTFSDYALGWFRQAPGKDREFVAAISWSGGSTYYADSVQGRFTISRDNDKNSVYLQMNSLKPEDTAVYYCAADKYYTGPGGESVYDYWGRGTQVTVSS
notes: llama VHH raised against TssMp; CDR3 of 14 residues; source: E. coli WK6 periplasm (pHEN6, pelB signal peptide), purified (Ni-NTA, Superdex 75)
B2: anti-TssM nanobody nb42 (VHH)
VHH: DVQLVESGGGLVQAGGSLRLSCAASGFTFGDYAIGWFRQAPGKEREGVSCFSNSDGSTYYADSVKGRFTSSSDNAKNTQYLQMNSLKPEDTAIYYCAAVKAQGIYCTEYIIGPYGMDYWGKGTLVTVSS
notes: very similar to nb25, CDR3 identical to that of nb25; No structure was solved for nb42; also called nb25 variant nb42; source: E. coli WK6 periplasm (pHEN6, pelB signal peptide), purified (Ni-NTA, Superdex 75)
B3: anti-TssM nanobody nb25 (VHH)
VHH: QVQLVESGGGLVQAGGSLRLSCAASGFTFEDYAIGWFRQAPGKEREGVSCISNLDGSTYYPDSVKGRFTASSDKAKNMVYLQMNSLKPEDTAVYYCAAVNAQGIYCTDYIIGPYGMDYWGKGTQVTVSS
notes: llama VHH raised against TssMp; CDR3 of 19 residues, disulfide bridge between Cys-106 and CDR2 Cys-50; source: E. coli WK6 periplasm (pHEN6, pelB signal peptide), purified (Ni-NTA, Superdex 75)

In this experiment the target is T1, periplasmic domain of the EAEC TssM …. Briefly: SPR; nanobodies covalently linked to a CM5 chip, TssMp injected (1.95 to 250 nM); Biacore X100; multi-cycle kinetics; regeneration with glycine-HCl pH 2.5; apparent KDs. Particulars: both partners purified.
Consider B1, for which the Kd amounted to 66.8 ± 2.5 nM, the koff came to 0.0402 s⁻¹ and the kon amounted to 602000 M⁻¹ s⁻¹.

In the case of B2, the Kd is 1.76 ± 0.08 nM, the koff came out at 0.00036 s⁻¹ and the on-rate (kon) is 204000 M⁻¹ s⁻¹.

On to B3, for which the Kd turned out to be 1.61 ± 0.05 nM, the koff turned out to be 0.00056 s⁻¹ and the kon amounted to 350000 M⁻¹ s⁻¹.
